Measurements as given in article PMC11731006, “Structural insight into Okazaki fragment maturation mediated by PCNA-bound FEN1 and RNaseH2”.

Biological target: RNaseH2 complex (RNaseH2A/RNaseH2B/RNaseH2C), wild type;PCNA (Homo sapiens;Homo sapiens, UniProt O75792;Q5TBB1;Q8TDP1;P12004 1-299;1-312;1-164;1-261, |)
Test: EMSA; 100 nM PCNA; 2 mM MgCl2; 100 nM DNA; 0.4-1.0 uM RNaseH2; PCNA raises binding (p 0.025, 0.010, 0.003 at 0.6, 0.8, 1.0 uM; ns at 0.4 uM); EMSA: 25 mM Tris pH 7.5, 100 mM NaCl, 10% glycerol, 2 mM MgCl2, 30 min at RT; 5% native TBE-PAGE at 4 C. Cryo-EM structures (8YJH-8YJZ) carry endogenous DNA of
Details: protein: recombinant;recombinant; tags: N-terminal 6xHis (each subunit as stated);N-terminal 6xHis; copies: 1;1;1;3; blunt

RNaseH2 complex (RNaseH2A/RNaseH2B/RNaseH2C), wild type;PCNA, sequence (O75792 whole entry, chain 1 of 4): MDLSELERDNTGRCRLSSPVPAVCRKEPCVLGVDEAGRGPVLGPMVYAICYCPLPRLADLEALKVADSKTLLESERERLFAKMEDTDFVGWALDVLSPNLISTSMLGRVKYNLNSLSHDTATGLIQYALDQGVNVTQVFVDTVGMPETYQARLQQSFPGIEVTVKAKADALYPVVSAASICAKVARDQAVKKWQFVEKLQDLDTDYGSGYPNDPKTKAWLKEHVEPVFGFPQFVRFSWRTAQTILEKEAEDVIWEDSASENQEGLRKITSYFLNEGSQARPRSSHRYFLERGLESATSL
RNaseH2 complex (RNaseH2A/RNaseH2B/RNaseH2C), wild type;PCNA, sequence (Q5TBB1 whole entry, chain 2 of 4): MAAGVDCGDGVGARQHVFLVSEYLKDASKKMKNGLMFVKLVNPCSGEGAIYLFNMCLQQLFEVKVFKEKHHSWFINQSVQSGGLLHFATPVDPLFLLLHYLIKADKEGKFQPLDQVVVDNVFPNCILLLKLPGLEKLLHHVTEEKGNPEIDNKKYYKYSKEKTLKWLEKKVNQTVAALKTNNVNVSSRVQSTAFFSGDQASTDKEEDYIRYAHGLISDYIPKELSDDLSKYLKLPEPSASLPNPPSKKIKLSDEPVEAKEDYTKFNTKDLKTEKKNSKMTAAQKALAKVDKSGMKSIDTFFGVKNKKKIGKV
RNaseH2 complex (RNaseH2A/RNaseH2B/RNaseH2C), wild type;PCNA, sequence (Q8TDP1 whole entry, chain 3 of 4): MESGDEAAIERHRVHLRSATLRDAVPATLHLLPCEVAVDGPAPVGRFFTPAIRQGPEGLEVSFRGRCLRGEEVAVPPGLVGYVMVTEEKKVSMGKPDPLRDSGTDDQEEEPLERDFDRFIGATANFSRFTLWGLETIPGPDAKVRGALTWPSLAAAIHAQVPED
RNaseH2 complex (RNaseH2A/RNaseH2B/RNaseH2C), wild type;PCNA, sequence (P12004 whole entry, chain 4 of 4): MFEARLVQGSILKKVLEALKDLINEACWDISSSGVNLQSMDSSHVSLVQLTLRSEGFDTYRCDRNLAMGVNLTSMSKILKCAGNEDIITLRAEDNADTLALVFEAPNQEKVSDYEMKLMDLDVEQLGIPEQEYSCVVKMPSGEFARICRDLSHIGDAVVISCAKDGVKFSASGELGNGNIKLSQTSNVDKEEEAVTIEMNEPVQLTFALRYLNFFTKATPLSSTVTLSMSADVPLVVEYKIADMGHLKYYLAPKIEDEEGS

B1: 5'-FAM 20 bp dsDNA (dsDNA)
DNA 1: CGGTTATAGGTTCACGGGGT
DNA 2: ACCCCGTGAACCTATAACCG
- binding result: binds
